# Measured values as given in patent US20240209409A1 (AJINOMOTO, published 2024).
# Where no end group is shown, it is not given here. [ ]: non-standard residue; d: D form. Phe(4-N3) = [N-]=[N+]=Nc1ccc(C[C@H](N)C(=O)O)cc1
# T1: EPOR (UniProt P19235 25-508, limits assumed)
# T1 sequence (looked up): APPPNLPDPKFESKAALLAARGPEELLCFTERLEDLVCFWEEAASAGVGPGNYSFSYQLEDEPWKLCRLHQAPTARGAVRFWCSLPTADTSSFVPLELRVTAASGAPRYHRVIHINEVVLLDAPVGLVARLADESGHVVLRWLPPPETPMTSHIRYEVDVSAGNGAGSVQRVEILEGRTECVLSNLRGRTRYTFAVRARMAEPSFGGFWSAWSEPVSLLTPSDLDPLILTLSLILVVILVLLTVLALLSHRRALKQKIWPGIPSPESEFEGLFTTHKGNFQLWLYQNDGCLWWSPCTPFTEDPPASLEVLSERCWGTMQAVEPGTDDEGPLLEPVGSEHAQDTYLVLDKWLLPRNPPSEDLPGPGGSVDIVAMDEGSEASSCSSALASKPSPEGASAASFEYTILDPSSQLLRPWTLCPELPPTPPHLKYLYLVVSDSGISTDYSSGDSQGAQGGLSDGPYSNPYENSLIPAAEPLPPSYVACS
# B1: WT-aMD4dY-PA22 (peptide)
# chain: AETCRQFNRRTHEVWNLDCGAAPAAPAPAAPAAPAPAAPAAPGCRQFNRRTHEVWNLDC
# B2: WT-EPO-PA22 (peptide)
# chain: AETGGLYACHMGPMTWVCQPLRGAAPAAPAPAAPAAPAPAAPAAPGGLYACHMGPMTWVCQPLRG
# B3: N-AzF-EPO-PA22 (peptide)
# chain: AET[Phe(4-N3)]GGLYACHMGPMTWVCQPLRGAAPAAPAPAAPAAPAPAAPAAPGGLYACHMGPMTWVCQPLRG
# B4: L1-AzF-EPO-PA22 (peptide)
# chain: AETGGLYACHMGPMTWVCQPLRGAAPAAPAPAAPA[Phe(4-N3)]APAPAAPAAPGGLYACHMGPMTWVCQPLRG
# B5: L2-AzF-EPO-PA22 (peptide)
# chain: AETGGLYACHMGPMTWVCQPLRGAAPAAPAPAA[Phe(4-N3)]AAPAPAAPAAPGGLYACHMGPMTWVCQPLRG
# B6: N-AzF-EPO-PA22 PEG-modified using m-dPEG24-DBCO (peptide)
# chain: AET[Phe(4-N3)](m‑dPEG24‑DBCO)GGLYACHMGPMTWVCQPLRGAAPAAPAPAAPAAPAPAAPAAPGGLYACHMGPMTWVCQPLRG
# B7: L1-AzF-EPO-PA22 PEG-modified using m-dPEG24-DBCO (peptide)
# chain: AETGGLYACHMGPMTWVCQPLRGAAPAAPAPAAPA[Phe(4-N3)](m‑dPEG24‑DBCO)APAPAAPAAPGGLYACHMGPMTWVCQPLRG
# B8: L2-AzF-EPO-PA22 PEG-modified using m-dPEG24-DBCO (peptide)
# chain: AETGGLYACHMGPMTWVCQPLRGAAPAAPAPAA[Phe(4-N3)](m‑dPEG24‑DBCO)AAPAPAAPAAPGGLYACHMGPMTWVCQPLRG
# B9: N-AzF-aMD4dY-PA22 (peptide)
# chain: AET[Phe(4-N3)]CRQFNRRTHEVWNLDCGAAPAAPAPAAPAAPAPAAPAAPGCRQFNRRTHEVWNLDC
# modifications: cysteine pairing not given here
# B10: L1-AzF-aMD4dY-PA22 (peptide)
# chain: AETCRQFNRRTHEVWNLDCGAAPAAPAPAAPA[Phe(4-N3)]APAPAAPAAPGCRQFNRRTHEVWNLDC
# modifications: cysteine pairing not given here
# B11: L2-AzF-aMD4dY-PA22 (peptide)
# chain: AETCRQFNRRTHEVWNLDCGAAPAAPAPAA[Phe(4-N3)]AAPAPAAPAAPGCRQFNRRTHEVWNLDC
# modifications: cysteine pairing not given here
# B12: N-AzF-aMD4dY-PA22 PEG-modified using m-dPEG24-DBCO (peptide)
# chain: AET[Phe(4-N3)](m‑dPEG24‑DBCO)CRQFNRRTHEVWNLDCGAAPAAPAPAAPAAPAPAAPAAPGCRQFNRRTHEVWNLDC
# modifications: cysteine pairing not given here
# B13: L1-AzF-aMD4dY-PA22 PEG-modified using m-dPEG24-DBCO (peptide)
# chain: AETCRQFNRRTHEVWNLDCGAAPAAPAPAAPA[Phe(4-N3)](m‑dPEG24‑DBCO)APAPAAPAAPGCRQFNRRTHEVWNLDC
# modifications: cysteine pairing not given here
# B14: L2-AzF-aMD4dY-PA22 PEG-modified using m-dPEG24-DBCO (peptide)
# chain: AETCRQFNRRTHEVWNLDCGAAPAAPAPAA[Phe(4-N3)](m‑dPEG24‑DBCO)AAPAPAAPAAPGCRQFNRRTHEVWNLDC
# modifications: cysteine pairing not given here
# Columns and labels:
# Met = Met (UniProt P08581 25-1390, limits assumed); experiment: cell-based or functional assay
# Sequence of Met (P08581 25-1390 limits assumed): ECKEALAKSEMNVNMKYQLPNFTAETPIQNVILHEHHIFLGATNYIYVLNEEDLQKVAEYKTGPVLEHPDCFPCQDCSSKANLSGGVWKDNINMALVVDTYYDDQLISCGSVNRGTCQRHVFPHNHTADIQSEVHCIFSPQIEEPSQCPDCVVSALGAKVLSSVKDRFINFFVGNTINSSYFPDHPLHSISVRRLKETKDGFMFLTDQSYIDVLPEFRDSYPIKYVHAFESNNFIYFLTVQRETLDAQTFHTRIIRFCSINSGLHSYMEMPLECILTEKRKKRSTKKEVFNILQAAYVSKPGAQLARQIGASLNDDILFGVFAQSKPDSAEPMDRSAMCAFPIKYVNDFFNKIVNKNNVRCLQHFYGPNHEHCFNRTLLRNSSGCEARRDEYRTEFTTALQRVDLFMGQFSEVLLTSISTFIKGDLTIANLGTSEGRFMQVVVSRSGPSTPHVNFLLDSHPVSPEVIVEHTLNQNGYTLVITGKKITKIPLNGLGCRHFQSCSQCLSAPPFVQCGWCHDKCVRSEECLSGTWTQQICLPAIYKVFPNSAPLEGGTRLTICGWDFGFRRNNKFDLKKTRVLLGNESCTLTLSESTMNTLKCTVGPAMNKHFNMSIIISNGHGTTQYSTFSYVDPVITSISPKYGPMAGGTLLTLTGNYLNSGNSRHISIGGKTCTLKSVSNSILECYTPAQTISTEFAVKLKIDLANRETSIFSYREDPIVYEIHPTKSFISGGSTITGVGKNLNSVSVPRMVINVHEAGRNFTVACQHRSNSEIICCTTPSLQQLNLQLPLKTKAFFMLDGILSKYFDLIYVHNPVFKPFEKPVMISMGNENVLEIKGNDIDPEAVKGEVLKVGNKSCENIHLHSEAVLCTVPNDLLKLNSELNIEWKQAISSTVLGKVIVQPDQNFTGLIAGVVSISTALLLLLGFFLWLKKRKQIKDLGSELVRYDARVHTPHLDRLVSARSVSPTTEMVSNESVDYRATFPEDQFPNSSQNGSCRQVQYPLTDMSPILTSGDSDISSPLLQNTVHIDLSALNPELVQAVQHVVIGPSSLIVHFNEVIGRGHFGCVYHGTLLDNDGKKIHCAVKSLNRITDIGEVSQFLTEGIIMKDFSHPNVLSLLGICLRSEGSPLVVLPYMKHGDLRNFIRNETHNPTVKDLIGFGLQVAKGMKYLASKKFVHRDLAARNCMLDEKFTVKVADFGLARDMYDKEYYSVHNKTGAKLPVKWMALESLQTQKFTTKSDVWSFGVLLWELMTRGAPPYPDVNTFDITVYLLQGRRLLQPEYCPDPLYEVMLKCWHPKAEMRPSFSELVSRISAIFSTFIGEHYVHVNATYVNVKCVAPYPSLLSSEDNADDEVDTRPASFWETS
# EPOR = target: T1, EPOR; experiment: cell-based or functional assay
binder,measurement,setting,value
B1,"reporter activity (SRE reporter, firefly/Renilla luciferase, HEK293 cells, relative to Mock); PEG+ sample (WT treated with m-dPEG24-DBCO, not modified), 2500-fold diluted",Met,> 10 times that of Mock
same,"reporter activity (SRE reporter, firefly/Renilla luciferase, HEK293 cells, relative to Mock); PEG- sample, 2500-fold diluted",Met,> 10 times that of Mock
B2,"reporter activity (PathHunter eXpress EpoR-JAK2 Functional Assay, chemiluminescence relative to Mock); PEG+ sample (WT treated with m-dPEG24-DBCO, not modified), 1000-fold diluted",EPOR,> 1.5 times that of Mock
same,"reporter activity (PathHunter eXpress EpoR-JAK2 Functional Assay, chemiluminescence relative to Mock); PEG- sample, 1000-fold diluted",EPOR,> 1.5 times that of Mock
B3,"reporter activity (PathHunter eXpress EpoR-JAK2 Functional Assay, chemiluminescence relative to Mock); PEG- sample, 1000-fold diluted",EPOR,> 1.5 times that of Mock
B4,"reporter activity (PathHunter eXpress EpoR-JAK2 Functional Assay, chemiluminescence relative to Mock); PEG- sample, 1000-fold diluted",EPOR,> 1.5 times that of Mock
B5,"reporter activity (PathHunter eXpress EpoR-JAK2 Functional Assay, chemiluminescence relative to Mock); PEG- sample, 1000-fold diluted",EPOR,> 1.5 times that of Mock
B6,"reporter activity (PathHunter eXpress EpoR-JAK2 Functional Assay, chemiluminescence relative to Mock); PEG+ sample, 1000-fold diluted",EPOR,> 1.5 times that of Mock
B7,"reporter activity (PathHunter eXpress EpoR-JAK2 Functional Assay, chemiluminescence relative to Mock); PEG+ sample, 1000-fold diluted",EPOR,> 1.5 times that of Mock
B8,"reporter activity (PathHunter eXpress EpoR-JAK2 Functional Assay, chemiluminescence relative to Mock); PEG+ sample, 1000-fold diluted",EPOR,> 1.5 times that of Mock
B9,"reporter activity (SRE reporter, firefly/Renilla luciferase, HEK293 cells, relative to Mock); PEG- sample, 2500-fold diluted",Met,> 10 times that of Mock
B10,"reporter activity (SRE reporter, firefly/Renilla luciferase, HEK293 cells, relative to Mock); PEG- sample, 2500-fold diluted",Met,> 10 times that of Mock
B11,"reporter activity (SRE reporter, firefly/Renilla luciferase, HEK293 cells, relative to Mock); PEG- sample, 2500-fold diluted",Met,> 10 times that of Mock
B12,"reporter activity (SRE reporter, firefly/Renilla luciferase, HEK293 cells, relative to Mock); PEG+ sample, 2500-fold diluted",Met,> 10 times that of Mock
B13,"reporter activity (SRE reporter, firefly/Renilla luciferase, HEK293 cells, relative to Mock); PEG+ sample, 2500-fold diluted",Met,> 10 times that of Mock
B14,"reporter activity (SRE reporter, firefly/Renilla luciferase, HEK293 cells, relative to Mock); PEG+ sample, 2500-fold diluted",Met,> 10 times that of Mock
